Target: S-RBD protein with C-terminal human Fc-tag (receptor-binding domain of SARS-CoV-2 S protein)
Experiment: flow cytometry on cells
Conditions: 100 μg/ml S-RBD, 1 mM Mn2+, β1-KO 293 T cells, read off a plot

“wild-type α4β1 integrin expressed in β1-KO 293 T cells (from UniProt P13612;P05556) β1:D130A” showed a response (parent: est. 1.5) of 0.95 relative MFI.
“wild-type α4β7 integrin expressed in β1-KO 293 T cells (from UniProt P13612;P26010) β7:D119A” showed a response (parent: est. 2.0) of 1.2 relative MFI.
For “wild-type α5β1 integrin expressed in β1-KO 293 T cells (from UniProt P08648;P05556) β1:D130A”, the response (parent: est. 1.2) was 0.93 relative MFI.
“wild-type αLβ2 integrin expressed in β1-KO 293 T cells (from UniProt P20701;P05107) αL:D137A” gave a response (parent: est. 1.3) of 0.97 relative MFI.

From paper PMC9969015
